# Experimental data as given in publication PMC9832388, “A novel method for real-time analysis of the complement C3b:FH:FI complex reveals dominant negative CFI variants in age-related macular degeneration” (Frontiers in Immunology, 2022).
# B1: I340T FI (enzyme, human)
# chain 1: KVTYTSQEDLVEKKCLAKKYTHLSCDKVFCQPWQRCIEGTCVCKLPYQCPKNGTAVCATNRRSFPTYCQQKSLECLHPGTKFLNNGTCTAEGKFSVSLKHGNTDSEGIVEVKLVDQDKTMFICKSSWSMREANVACLDLGFQQGADTQRRFKLSDLSINSTECLHVHCRGLETSLAECTFTKRRTMGYQDFADVVCYTQKADSPMDDFFQCVNGKYISQMKACDGINDCGDQSDELCCKACQGKGFHCKSGVCIPSQYQCNGEVDCITGEDEVGCAGFASVTQEETEILTADMDAERRRIKSLLPKLSCGVKNRMHI
# chain 2: TVGGKRAQLGDLPWQVAIKDASGITCGGIYIGGCWILTAAHCLRASKTHRYQIWTTVVDWIHPDLKRIVIEYVDRIIFHENYNAGTYQNDIALIEMKKDGNKKDCELPRSIPACVPWSPYLFQPNDTCIVSGWGREKDNERVFSLQWGEVKLISNCSKFYGNRFYEKEMECAGTYDGSIDACKGDSGGPLVCMDANNVTYVWGVVSWGENCGKPEFPGVYTKVANYFDWISYHVGRPFISQYNV
# Biological target: C3b (UniProt P01024 23-667; P01024 749-1663)
# Sequence (P01024 23-667, chain 1 of 2): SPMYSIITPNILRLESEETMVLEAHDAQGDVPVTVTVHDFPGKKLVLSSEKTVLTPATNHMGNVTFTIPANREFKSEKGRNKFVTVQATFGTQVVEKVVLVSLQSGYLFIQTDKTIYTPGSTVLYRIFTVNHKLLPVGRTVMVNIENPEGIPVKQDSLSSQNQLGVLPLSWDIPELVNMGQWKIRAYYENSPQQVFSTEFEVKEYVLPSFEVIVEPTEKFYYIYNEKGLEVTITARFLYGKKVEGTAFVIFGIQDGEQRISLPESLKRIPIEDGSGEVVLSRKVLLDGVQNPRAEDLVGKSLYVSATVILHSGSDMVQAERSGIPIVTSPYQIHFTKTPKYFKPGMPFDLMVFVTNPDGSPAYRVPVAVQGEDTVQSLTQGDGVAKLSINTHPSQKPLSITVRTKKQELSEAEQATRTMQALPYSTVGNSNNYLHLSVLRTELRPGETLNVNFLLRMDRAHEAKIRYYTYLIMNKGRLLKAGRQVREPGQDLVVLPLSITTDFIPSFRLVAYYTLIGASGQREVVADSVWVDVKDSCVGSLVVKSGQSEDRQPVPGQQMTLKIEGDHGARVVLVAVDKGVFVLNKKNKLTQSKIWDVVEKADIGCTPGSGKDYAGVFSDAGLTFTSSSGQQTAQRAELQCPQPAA
# Sequence (P01024 749-1663, chain 2 of 2): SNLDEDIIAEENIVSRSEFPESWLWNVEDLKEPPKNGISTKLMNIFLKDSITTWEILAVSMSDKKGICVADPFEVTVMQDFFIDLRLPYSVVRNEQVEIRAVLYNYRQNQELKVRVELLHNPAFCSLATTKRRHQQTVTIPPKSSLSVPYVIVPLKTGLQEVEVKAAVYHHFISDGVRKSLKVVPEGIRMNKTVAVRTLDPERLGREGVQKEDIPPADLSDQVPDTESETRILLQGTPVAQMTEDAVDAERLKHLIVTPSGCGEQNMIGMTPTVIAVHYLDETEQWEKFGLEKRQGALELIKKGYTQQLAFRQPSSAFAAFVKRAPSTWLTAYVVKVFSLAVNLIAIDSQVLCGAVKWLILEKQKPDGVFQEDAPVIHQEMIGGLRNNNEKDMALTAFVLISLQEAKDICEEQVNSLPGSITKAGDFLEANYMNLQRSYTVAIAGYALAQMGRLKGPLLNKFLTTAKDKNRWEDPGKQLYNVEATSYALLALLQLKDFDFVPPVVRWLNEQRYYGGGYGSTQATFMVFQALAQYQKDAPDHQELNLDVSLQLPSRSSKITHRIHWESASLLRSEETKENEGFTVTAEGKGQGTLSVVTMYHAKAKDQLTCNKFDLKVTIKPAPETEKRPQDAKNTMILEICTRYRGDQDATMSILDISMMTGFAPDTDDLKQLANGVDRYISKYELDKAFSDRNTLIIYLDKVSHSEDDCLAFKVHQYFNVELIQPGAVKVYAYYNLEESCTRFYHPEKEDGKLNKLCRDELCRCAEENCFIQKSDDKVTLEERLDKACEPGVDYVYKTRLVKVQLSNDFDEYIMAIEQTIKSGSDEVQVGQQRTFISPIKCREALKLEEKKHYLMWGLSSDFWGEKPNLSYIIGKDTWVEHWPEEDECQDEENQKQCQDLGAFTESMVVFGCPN
# Test: cell-based or functional assay
binder,measurement,value
B1,"inhibition of the activity of WT FI in a fluid phase CA assay with increasing I340T FI (~25% at equimolar, 30% at 2-fold molar)",30%
